Results on three molecules are retold here after article PMC5105069, “Structural assemblies of the di- and oligomeric G-protein coupled receptor TGR5 in live cells: an MFIS-FRET and integrative modelling study” (Scientific Reports, 2016).

Numbering of substitutions follows the chain as printed. Numbers in names are those of the source.

Data set [1] deals with T1, TGR5 wt fused to GFP or mCherry (TGR5 wt-GFP and TGR5 wt-mCherry), Q8TDU6.
T1 chain: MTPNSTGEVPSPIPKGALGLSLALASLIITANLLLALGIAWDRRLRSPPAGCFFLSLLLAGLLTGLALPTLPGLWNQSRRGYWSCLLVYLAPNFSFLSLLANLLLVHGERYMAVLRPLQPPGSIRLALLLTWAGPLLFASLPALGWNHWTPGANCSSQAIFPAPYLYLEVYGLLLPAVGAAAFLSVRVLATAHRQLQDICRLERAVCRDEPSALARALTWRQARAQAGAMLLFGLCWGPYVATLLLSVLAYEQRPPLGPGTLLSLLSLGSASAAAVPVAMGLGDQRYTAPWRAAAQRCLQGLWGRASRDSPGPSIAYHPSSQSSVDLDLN
The experiment in a line: FRET or BRET; MFIS-FRET in live HEK293 cells; GFP (donor) and mCherry (acceptor) on the C-terminus of TGR5; acceptor titration up to donor:acceptor 1:40; total TGR5 0.5-13 uM; also before and after 10 uM taurocholate (no change); KD2 is of the step tetramer to dimers, modelled by a dimer/tetramer simulation of E_mean against the donor-acceptor ratio with KD1 of the dimer fixed to 10 nM. As to conditions: remark: other sources report otherwise.

Data set [2] deals with the molecule itself. Described as above.

B1: TGR5 wt fused to GFP or mCherry (TGR5 wt-GFP and TGR5 wt-mCherry), Q8TDU6 1-330 (receptor)
chain: T1 chain
B1: in data set [1], the KD2 (tetramer to dimers, modeled) is 70 nM and the stoichiometry N was 4.

B2: TGR5 Y111A fused to GFP or mCherry (receptor, UniProt Q8TDU6 1-330, looked up)
chain: T1 chain with Y111A
notes: TGR5 (GPBAR-1, M-BAR) with Y111A in the ERY motif; Two differently tagged copies (GFP donor, mCherry acceptor), co-expressed; Each copy carries only one fluorescent protein; also called Y111A variant; source: HEK293, transiently transfected, in live cells; not shown: GFP, C-terminal, kept; mCherry, C-terminal, kept
On to B2, for which, in data set [2], the “stoichiometry N” value was 2.

B3: TGR5 Y111F fused to GFP or mCherry (receptor, UniProt Q8TDU6 1-330, looked up)
chain: T1 chain with Y111F
notes: TGR5 (GPBAR-1, M-BAR) with Y111F in the ERY motif; Two differently tagged copies (GFP donor, mCherry acceptor), co-expressed; Each copy carries only one fluorescent protein; also called Y111F variant; source: HEK293, transiently transfected, in live cells; not shown: GFP, C-terminal, kept; mCherry, C-terminal, kept
B3: in data set [2], the “stoichiometry N” value is 4.
